# Laboratory results from US7211424B1, “Mammalian Subtilisin/kexin isozyme SKI-1: a proprotein convertase with a unique cleavage specificity” (Institut de Recherches Cliniques de Montreal, priority 1999, dated 2007).
# T1: BTMD-SKI-1 (Homo sapiens, UniProt Q14703)
# T1 sequence (Q14703 187-997 limits assumed): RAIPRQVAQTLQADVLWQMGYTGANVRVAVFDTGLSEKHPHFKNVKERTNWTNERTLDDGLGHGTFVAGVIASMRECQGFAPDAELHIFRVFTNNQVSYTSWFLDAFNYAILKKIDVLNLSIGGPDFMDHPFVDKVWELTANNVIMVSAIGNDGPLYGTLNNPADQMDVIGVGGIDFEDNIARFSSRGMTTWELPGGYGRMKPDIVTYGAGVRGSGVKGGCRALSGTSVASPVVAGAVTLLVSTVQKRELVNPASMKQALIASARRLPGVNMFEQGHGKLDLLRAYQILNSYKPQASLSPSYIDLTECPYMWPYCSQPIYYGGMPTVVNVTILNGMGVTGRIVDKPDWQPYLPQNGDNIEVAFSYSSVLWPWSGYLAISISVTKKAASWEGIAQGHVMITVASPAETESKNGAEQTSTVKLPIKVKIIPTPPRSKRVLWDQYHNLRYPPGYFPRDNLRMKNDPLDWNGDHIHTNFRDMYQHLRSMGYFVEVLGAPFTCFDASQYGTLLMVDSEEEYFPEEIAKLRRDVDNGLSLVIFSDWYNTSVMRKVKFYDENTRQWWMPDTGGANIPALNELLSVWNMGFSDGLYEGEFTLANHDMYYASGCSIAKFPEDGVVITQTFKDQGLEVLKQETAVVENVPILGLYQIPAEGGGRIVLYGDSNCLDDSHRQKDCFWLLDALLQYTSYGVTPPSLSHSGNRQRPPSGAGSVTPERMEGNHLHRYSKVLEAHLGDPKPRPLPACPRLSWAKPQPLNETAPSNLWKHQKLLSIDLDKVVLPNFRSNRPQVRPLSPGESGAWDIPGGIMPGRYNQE
# T1 sequence (Q14703 17-137 partner limits assumed): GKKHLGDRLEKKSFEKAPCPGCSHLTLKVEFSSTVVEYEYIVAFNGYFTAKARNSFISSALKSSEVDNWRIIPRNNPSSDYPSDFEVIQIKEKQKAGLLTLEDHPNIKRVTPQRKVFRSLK
# T2: SKI-1 (Homo sapiens, UniProt Q14703)
# T2 sequence (Q14703 187-998 limits assumed): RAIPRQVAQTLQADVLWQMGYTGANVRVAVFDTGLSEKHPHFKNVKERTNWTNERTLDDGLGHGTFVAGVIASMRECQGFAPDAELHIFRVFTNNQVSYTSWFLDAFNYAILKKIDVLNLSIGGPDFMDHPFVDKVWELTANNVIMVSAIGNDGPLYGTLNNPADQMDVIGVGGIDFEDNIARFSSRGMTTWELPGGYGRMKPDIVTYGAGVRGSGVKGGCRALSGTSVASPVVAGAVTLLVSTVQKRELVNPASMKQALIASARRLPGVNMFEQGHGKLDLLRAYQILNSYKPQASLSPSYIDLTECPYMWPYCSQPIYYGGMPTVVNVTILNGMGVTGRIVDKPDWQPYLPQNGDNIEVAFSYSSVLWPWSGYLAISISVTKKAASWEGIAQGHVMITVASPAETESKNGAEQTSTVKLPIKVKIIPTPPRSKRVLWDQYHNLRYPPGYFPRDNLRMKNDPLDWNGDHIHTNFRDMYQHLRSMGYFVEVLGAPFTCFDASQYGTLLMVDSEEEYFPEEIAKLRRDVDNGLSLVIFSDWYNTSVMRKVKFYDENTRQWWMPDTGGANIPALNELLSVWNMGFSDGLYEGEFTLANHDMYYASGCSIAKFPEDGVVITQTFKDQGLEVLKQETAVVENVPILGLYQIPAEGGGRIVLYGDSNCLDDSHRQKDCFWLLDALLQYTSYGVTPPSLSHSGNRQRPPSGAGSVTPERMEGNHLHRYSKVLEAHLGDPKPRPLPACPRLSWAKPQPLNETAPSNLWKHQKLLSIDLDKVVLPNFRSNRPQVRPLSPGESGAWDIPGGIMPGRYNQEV
# T3: SKI-1 protease (Homo sapiens, UniProt Q14703)
# T3 construct: endogenous in cells; the enzyme itself is not transfected
# T3 sequence (Q14703 187-1052): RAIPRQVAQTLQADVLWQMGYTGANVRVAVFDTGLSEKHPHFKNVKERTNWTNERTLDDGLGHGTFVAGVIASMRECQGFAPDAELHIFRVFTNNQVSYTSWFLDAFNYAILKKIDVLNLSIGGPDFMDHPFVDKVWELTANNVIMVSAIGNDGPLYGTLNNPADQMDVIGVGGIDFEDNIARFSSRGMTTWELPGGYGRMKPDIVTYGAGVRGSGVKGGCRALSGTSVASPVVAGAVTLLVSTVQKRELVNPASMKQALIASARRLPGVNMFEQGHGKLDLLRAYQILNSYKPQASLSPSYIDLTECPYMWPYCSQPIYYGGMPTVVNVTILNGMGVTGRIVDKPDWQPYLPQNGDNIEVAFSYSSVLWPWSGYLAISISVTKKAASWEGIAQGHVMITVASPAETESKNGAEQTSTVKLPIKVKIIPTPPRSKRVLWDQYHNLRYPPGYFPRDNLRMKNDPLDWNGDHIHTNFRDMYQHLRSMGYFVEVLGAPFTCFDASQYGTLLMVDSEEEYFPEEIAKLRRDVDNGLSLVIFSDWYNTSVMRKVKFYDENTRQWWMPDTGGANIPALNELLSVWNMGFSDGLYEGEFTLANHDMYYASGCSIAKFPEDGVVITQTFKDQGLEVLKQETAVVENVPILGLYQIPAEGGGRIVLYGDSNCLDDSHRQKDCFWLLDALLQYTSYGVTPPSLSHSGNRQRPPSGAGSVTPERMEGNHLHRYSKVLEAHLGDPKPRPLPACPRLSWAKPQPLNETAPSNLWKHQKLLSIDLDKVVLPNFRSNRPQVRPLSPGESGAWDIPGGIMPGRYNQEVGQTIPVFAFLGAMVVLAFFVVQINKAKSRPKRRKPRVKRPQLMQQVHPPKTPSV
# B1: ProSKI-1: the 188 amino acids that make up the signal peptide and the prosegment of SKI-1, expressed in HK293 cells (protein)
# chain: GKKHLGDRLEKKSFEKAPCPGCSHLTLKVEFSSTVVEYEYIVAFNGYFTAKARNSFISSALKSSEVDNWRIIPRNNPSSDYPSDFEVIQIKEKQKAGLLTLEDHPNIKRVTPQRKVFRSLKYAESDPTVPCNETRWSQKWQSSRPLRRASLSLGSGFWHATGRHSSRRLLRA
# Tests used:
# shed-hSKI-1 = target: T4, shed-hSKI-1 (Homo sapiens, UniProt Q14703); assay: Hydrolysis of quenched fluorogenic substrates by shed-hSKI-1; type: biochemical; conditions: in the presence of 10 mM EDTA
# T4 construct: SKI-1 is further processed to remove the transmembrane domain that keeps it integrated in the ER membrane, which generates a SKI-1 soluble form; made in house; host or cells: HK293 cells stably transfected with full-length hSKI-1 in pcDNA3; shed enzyme in the medium
# Protocol: For digestions, each peptide was typically reacted at 37° C. with 10 μl of the concentrated enzyme preparation in a buffer consisting of 50 mM HEPES (N-2-Hydroxyethyl piperazine-N′-2 EthaneSulfonic acid) (ICN Biomedicals Inc), 50 mM MES (2-[N-Morpholino] EthaneSulfonic acid) (Sigma Chem Co.), and 3 mM Ca^2+-acetate (pH 6.5). The digestion products were separated by RP-HPLC on a Beckman 5 μm Ultrasphere C18 column (0.2×25 cm) and eluted with a 1%/min linear gradient of aqueous 0.1% TFA/CH3CN ([…]) at a flow rate of 1 ml/min. The collected peptides were characterized by mass spectrometry and amino acid composition, which was also used to quantitate the amount of various substrates and products. The digestions of the quenched fluorogenic peptides were analyzed by RP-HPLC using a dual UV (210 nm) and fluorescence (excitation and emission wavelengths of 320 and 420 nm, respectively) detector (Rainin).
# Km(app), Vmax(app) and Ki(app) determinations—Following digestion reactions with increasing substrate concentrations, the products were separated by RP-HPLC. The rate of substrate hydrolysis was obtained from the integrated peak areas of the chromatograms. […] For the two quenched peptides, kinetic parameters were determined as described (17).
# BTMD-SKI-1 = target: T1, BTMD-SKI-1; assay: biochemical; type: biochemical
# SKI-1 = target: T2, SKI-1; type: biochemical; conditions: overnight 37° C., pH 6.0; PMSF 0.5 mM + pAPMSF 50 μM, o-phenanthroline 5 mM, EDTA 10 mM
# [1] = system: SREBP mediated transcription; assay: SREBP target gene mRNA in HK293 cells overexpressing ProSKI-1 and SREBP-1 (Northern blot); type: cell-based, human
# Protocol: Cell Culture: […] Total RNA was isolated with Trizol (Gibco BRL) reagent according to the instructions of the manufacturer. In order to extract proteins cells were washed and collected in PBS with protease inhibitors ( ). […] Samples were shaken at 4 C for 1 hour and centrifuged and the supernatant was frozen in aliquots at -70° C. Transfections: […] On day two medium containing appropriate selection agents (800 μg/ml Geneticin for pcDNA3neo, […] Zeocin for pcDNA3zeo) were added. The medium was changed every two days until defined colonies were evident. Colonies were isolated and formed stable cell lines were analyzed by immunoblotting with ProSKI-1 and SREBP-1 antibodies. […] After transfer filters were crosslinked by UV irradiation in a Stratalinker (Stratagene). Filters were prehydridized at 42° C. for 1 hour and hybridized with random labeled ^32P cDNA probes for 16-20 hours. UltrahybTM buffer (Ambion) was used. After hybridization filters were washed and exposed to film for indicated time and bands were quantified by densitometry. Primer pairs were used to clone cDNA probes: HMG CoA reductase [[NT] ID NO: 21)] [[NT] ID NO: 22)], farnesyl diphosphate [[NT] ID NO: 23)], [[NT] ID NO: 24)], Fatty acid synthase [[NT] ID NO: 25)], [[NT] ID NO: 26)], Acetyl CoA carboxylase [[NT] ID NO: 27)], [5' [NT]3 (SEQ ID NO: 28)], SREBP-1 [[NT] ID NO: 29)], [[NT] ID NO: 30)]. […]
# SKI-1 protease = target: T3, SKI-1 protease; assay: SREBP-1 processing in stable HK293 cell lines overexpressing ProSKI-1 and SREBP-1 (immunoblot); type: cell-based
# Protocol: Cell Culture: HK293 cells were maintained as monolayers in Dulbecco's modified Eagle's medium containing 100 units/ml penicillin and 100 μg/ml streptomycin sulfate (medium A) supplemented with 10% fetal calf serum. 24 hours before RNA and protein extractions medium A was supplemented with 5% lipoprotein deficient serum, 50 μM mevalonate (Sigma), 50 μM compactin (Sigma) and with no sterols or 1 μg/ml of 25-hydroxy-cholesterol and 10 μg/ml of cholesterol. 4 hours before protein extraction 25 μg/ml N-acetyl-leucinyl—leucinyl norleucinal was added. Total RNA was isolated with Trizol (Gibco BRL) reagent according to the instructions of the manufacturer. In order to extract proteins cells were washed and collected in PBS with protease inhibitors ( ). After addition of buffer A (Triton×100 1%,50 mM tris maleate, 2 mM CaCl2, inhibitor coctail ( ), and ALLN) cells were mixed with pipette and allowed to swell on ice for 20 minutes Then the solution was centrifuged for 5 minutes at 15, 000 rpm and supernatants representing membrane proteins were collected and stored until analyzed at −70° C. […]
# Transfections: HK293 cells were plated at a density of 5×10^5 /60 mm dish in medium A with 10% fetal calf serum and were cultured until they were 40–60% confluent. […] Colonies were isolated and formed stable cell lines were analyzed by immunoblotting with ProSKI-1 and SREBP-1 antibodies. […]
# furin = furin (Homo sapiens, UniProt P09958); assay: Specificity of ProSKI-1: processing of neurotrophin-3 (NT-3), a substrate not processed by SKI-1; type: cell-based
# furin, sequence (P09958 108-794, species assumed): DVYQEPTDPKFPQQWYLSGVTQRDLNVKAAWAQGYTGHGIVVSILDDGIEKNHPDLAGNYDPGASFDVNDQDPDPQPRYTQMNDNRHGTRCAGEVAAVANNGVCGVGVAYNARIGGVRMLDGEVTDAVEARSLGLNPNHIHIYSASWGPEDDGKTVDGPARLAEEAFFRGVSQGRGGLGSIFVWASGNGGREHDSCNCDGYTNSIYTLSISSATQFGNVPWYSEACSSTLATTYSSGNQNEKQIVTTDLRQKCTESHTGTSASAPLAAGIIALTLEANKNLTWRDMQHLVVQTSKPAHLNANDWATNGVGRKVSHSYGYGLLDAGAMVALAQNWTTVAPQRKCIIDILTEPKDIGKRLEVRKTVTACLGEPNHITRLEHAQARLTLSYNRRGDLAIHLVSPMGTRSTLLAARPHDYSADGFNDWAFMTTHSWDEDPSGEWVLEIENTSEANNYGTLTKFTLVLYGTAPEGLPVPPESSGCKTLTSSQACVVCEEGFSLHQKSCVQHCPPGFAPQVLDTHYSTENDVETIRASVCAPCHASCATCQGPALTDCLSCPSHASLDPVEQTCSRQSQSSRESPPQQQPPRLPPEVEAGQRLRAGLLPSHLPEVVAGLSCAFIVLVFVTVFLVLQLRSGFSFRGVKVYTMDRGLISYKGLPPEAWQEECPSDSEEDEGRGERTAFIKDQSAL
molecule,measurement,setting,value
O=C(O)CN(CCN(CC(=O)O)CC(=O)O)CC(=O)O [EDTA],cleavage of quenched fluorogenic peptide at the RSLK↓ site,shed-hSKI-1,completely abolished
same,Hydrolysis of SREBP-2 peptide (% of control),BTMD-SKI-1,0 % of control
same,inhibition of the processing of proBDNF by SKI-1,SKI-1,effectively inhibit
B1,"mRNA levels of LDL-receptor, HMG-CoA reductase, farnesyl diphosphate and fatty acid synthase","[1]; HK293 cells, with and without lipids, early passages of previously frozen cell lines",greatly reduced
same,target gene mRNA levels,[1]; same clones kept in culture for further passages,normal or even higher than in control cells
same,processing of cytoplasmic proSREBP-1 into intermediate form(s),SKI-1 protease; HK293 cell lines overexpressing SREBP-1 together with ProSKI-1,formation of the intermediate form(s) of SREBP-1 was abolished
same,nuclear SREBP-1,"SKI-1 protease; HK293 nuclear extracts, absence of sterols",Only minute amounts of nuclear SREBPs were detected
same,level and furin-derived processing of NT-3,furin,unaffected
